The text below walks through data of IntAct's records for PubMed 15207857.

To fix the notation:
B1: Glutamate receptor ionotropic, delta-2 (Mus musculus), Q61625 (parent)
chain: MEVFPLLLFLSFCWSRTWDLATADSIIHIGAIFDESAKKDDEVFRTAVGDLNQNEEILQTEKITFSVTFVDGNNPFQAVQEACELMNQGILALVSSIGCTSAGSLQSLADAMHIPHLFIQRSTAGTPRSGCGLTRSNRNDDYTLSVRPPVYLNEVILRVVTEYAWQKFIIFYDSEYDIRGIQEFLDKVSQQGMDVALQKVENNINKMITTLFDTMRIEELNRYRDTLRRAILVMNPATAKSFISEVVETNLVAFDCHWIIINEEINDVDVQELVRRSIGRLTIIRQTFPVPQNISQRCFRGNHRISSSLCDPKDPFAQNMEISNLYIYDTVLLLANAFHKKLEDRKWHSMASLSCIRKNSKPWQGGRSMLETIKKGGVNGLTGDLEFGENGGNPNVHFEILGTNYGEELGRGVRKLGCWNPVTGLNGSLTDKKLENNMRGVVLRVVTVLEEPFVMVSENVLGKPKKYQGFSIDVLDALSNYLGFNYEIYVAPDHKYGSPQEDGTWNGLVGELVFKRADIGISALTITPDRENVVDFTTRYMDYSVGVLLRRAEKTVDMFACLAPFDLSLWACIAGTVLLVGLLVYLLNWLNPPRLQMGSMTSTTLYNSMWFVYGSFVQQGGEVPYTTLATRMMMGAWWLFALIVISSYTANLAAFLTITRIESSIQSLQDLSKQTDIPYGTVLDSAVYQHVRMKGLNPFERDSMYSQMWRMINRSNGSENNVLESQAGIQKVKYGNYAFVWDAAVLEYVAINDPDCSFYTVGNTVADRGYGIALQHGSPYRDVFSQRILELQQSGDMDILKHKWWPKNGQCDLYSSVDAKQKGGALDIKSLAGVFCILAAGIVLSCLIAVLETWWSRRKGSRVPSKEDDKEIDLEHLHRRVNSLCTDDDSPHKQFSTSSIDLTPLDIDTLPTRQALEQISDFRNTHITTTTFIPEQIQTLSRTLSAKAASGFAFGSVPEHRTGPFRHRAPNGGFFRSPIKTMSSIPYQPTPTLGLNLGNDPDRGTSI
partner: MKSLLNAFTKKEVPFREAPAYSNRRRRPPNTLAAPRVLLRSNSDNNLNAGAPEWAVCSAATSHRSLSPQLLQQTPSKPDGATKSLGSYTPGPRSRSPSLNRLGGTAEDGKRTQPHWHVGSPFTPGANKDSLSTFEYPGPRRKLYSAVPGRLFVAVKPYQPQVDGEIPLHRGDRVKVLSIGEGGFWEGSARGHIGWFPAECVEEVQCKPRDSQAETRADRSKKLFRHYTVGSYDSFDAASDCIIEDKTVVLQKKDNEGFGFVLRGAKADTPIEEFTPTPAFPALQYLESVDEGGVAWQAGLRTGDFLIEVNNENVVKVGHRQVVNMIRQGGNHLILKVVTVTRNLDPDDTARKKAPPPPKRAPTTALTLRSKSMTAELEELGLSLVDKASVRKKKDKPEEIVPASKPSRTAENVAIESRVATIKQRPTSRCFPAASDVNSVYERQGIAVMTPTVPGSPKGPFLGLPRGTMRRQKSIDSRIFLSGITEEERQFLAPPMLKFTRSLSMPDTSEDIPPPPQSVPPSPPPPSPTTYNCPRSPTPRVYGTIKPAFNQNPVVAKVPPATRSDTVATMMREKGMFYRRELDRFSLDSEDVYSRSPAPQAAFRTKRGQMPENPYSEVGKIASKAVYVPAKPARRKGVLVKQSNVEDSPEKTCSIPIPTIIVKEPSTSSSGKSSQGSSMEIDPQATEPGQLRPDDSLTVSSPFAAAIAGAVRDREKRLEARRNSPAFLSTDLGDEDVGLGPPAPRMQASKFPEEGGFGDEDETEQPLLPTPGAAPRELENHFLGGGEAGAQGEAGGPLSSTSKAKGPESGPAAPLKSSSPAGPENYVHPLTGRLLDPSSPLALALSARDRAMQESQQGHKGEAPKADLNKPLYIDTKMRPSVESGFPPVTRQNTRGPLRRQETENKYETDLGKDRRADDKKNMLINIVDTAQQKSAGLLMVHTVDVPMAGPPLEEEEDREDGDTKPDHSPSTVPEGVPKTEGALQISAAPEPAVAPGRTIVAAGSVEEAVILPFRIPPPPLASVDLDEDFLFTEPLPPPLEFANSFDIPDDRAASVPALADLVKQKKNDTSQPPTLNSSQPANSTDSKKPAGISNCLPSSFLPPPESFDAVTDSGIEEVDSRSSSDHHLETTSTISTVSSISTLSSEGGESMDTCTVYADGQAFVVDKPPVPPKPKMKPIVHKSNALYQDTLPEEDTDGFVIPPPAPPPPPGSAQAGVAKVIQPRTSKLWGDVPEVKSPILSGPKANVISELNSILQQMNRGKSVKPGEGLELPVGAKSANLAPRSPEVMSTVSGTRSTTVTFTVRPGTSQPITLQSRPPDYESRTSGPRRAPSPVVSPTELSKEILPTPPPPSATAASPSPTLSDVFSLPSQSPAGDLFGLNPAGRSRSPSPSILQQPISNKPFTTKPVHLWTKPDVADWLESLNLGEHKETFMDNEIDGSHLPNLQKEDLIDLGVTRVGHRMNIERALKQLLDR
B2: Glutamate receptor ionotropic, delta-2 (Mus musculus), Q61625 (parent)
chain: B1 chain

One experiment covers variants of B1. Particulars: with shan2_mouse Shank2, Q80Z38.
With S920A, the “effect of a mutation on the interaction” value is “disrupting interaction”.
As to T930A, the “effect of a mutation on the interaction” value is recorded as “decreasing interaction”.
The same measure, in the same setting: for T930A;F932A the value was “decreasing interaction”.

The variants in another experiment derive from B1. Particulars: with shan2_mouse Shank2, Q80Z38. This is another data set of the same source.
For S920A;T930A;F932A, the “effect of a mutation on the interaction” value is on record as “disrupting interaction”.

The variants in another experiment derive from B2. Particulars: with shan1_rat Shank1, Q9WV48.
Sequence of shan1_rat Shank1, Q9WV48 (Q9WV48 whole entry): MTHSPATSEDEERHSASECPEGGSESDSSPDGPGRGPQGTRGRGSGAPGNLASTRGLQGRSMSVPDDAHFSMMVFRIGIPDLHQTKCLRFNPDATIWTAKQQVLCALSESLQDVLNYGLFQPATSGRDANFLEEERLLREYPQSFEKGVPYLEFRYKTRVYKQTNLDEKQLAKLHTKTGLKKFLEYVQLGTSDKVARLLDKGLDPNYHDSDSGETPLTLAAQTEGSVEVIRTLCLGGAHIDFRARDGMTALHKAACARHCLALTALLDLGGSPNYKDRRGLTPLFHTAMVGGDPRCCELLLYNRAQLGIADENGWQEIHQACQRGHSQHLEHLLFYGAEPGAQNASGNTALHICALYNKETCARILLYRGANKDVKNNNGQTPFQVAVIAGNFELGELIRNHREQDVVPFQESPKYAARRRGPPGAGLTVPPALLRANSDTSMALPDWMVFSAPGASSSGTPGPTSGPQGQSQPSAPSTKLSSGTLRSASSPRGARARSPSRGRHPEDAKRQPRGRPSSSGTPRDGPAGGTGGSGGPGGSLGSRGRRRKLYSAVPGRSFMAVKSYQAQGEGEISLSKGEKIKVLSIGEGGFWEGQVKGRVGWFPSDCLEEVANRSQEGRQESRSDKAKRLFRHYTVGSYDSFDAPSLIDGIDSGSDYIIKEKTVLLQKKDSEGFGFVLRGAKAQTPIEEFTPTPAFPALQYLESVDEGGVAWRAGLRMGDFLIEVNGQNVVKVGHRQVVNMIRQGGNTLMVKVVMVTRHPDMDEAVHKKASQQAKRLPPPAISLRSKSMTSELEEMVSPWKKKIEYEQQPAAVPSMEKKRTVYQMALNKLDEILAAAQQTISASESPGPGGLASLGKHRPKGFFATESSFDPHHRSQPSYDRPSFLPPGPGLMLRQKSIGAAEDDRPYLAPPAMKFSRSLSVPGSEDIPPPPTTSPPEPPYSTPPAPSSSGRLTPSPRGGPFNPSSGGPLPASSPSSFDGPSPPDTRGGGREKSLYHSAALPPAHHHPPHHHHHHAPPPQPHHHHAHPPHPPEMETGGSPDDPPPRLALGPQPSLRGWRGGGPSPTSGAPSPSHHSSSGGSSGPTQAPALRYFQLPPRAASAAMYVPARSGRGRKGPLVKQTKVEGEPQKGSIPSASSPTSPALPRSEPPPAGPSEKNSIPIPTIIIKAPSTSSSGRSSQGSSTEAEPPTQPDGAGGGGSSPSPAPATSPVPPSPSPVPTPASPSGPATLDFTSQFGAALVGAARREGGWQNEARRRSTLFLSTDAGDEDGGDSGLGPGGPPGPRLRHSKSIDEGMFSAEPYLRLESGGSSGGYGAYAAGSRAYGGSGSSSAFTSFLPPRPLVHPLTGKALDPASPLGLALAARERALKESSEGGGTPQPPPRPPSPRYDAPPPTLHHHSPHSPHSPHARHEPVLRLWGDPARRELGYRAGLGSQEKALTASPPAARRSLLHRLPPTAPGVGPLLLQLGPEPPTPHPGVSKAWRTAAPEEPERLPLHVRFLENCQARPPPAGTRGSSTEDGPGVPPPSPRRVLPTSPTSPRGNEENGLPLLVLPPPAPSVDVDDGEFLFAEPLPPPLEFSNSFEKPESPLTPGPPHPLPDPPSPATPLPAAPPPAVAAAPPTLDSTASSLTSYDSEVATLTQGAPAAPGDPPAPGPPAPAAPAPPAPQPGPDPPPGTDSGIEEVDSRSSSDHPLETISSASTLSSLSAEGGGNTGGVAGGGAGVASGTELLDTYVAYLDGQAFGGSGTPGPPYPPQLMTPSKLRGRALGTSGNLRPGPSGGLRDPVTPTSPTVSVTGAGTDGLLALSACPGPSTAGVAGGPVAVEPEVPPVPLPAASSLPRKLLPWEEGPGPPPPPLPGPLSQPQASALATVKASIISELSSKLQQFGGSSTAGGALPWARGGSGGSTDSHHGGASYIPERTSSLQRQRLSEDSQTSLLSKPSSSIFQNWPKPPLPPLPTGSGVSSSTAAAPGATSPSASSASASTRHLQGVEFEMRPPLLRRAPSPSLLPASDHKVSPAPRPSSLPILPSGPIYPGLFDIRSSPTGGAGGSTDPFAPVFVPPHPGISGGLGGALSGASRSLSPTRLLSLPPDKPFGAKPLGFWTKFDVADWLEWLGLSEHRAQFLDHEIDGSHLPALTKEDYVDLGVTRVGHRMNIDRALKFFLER
Turning to S920A, the “effect of a mutation on the interaction” value was “disrupting interaction”.
The same measure, in the same setting: for T930A;F932A the value was “disrupting interaction”; for T930A, “decreasing interaction”.
